Experiments:
[1] = target: platelet activating factor receptor (PAFr) of 16HBE14 human bronchial epithelial cells (human (endogenous in 16HBE14)) (UniProt P25105)
[2] = target: recombinant human PAFr coupled to the G-protein Giα2β1γ2 (UniProt P25105); test: ELISA
[3] = target: recombinant human PAFr coupled to the G-protein Giα3β1γ2 (UniProt P25105); test: ELISA

pili of N. meningitidis strain 8013SBpptA8G (ChoP+) (natural protein)
> 2 fold: adherence of 8013SBpptA8G bacteria to Chem-1-PAFr cells, fold increase against 8013SB WT bacteria (fluorescence, 30 min) [1] | fold increase against pili of 8013SB WT [2] | fold increase against pili of 8013SB WT [3]

Source: paper PMC3656113
